Assay results from patent US20260209362A1 (VIB VZW, published 2026).
Residue numbers refer to the chain shown, from its start.

T1: human IL-12Rβ2 (human, UniProt Q99665 24-862)
T1 construct: Expressed on HEK293T cells transiently transfected with a pcDNA3 plasmid (Genscript clone OHu21785); also called hIL-12RB2; IL-12 receptor β2 subunit
T1 sequence: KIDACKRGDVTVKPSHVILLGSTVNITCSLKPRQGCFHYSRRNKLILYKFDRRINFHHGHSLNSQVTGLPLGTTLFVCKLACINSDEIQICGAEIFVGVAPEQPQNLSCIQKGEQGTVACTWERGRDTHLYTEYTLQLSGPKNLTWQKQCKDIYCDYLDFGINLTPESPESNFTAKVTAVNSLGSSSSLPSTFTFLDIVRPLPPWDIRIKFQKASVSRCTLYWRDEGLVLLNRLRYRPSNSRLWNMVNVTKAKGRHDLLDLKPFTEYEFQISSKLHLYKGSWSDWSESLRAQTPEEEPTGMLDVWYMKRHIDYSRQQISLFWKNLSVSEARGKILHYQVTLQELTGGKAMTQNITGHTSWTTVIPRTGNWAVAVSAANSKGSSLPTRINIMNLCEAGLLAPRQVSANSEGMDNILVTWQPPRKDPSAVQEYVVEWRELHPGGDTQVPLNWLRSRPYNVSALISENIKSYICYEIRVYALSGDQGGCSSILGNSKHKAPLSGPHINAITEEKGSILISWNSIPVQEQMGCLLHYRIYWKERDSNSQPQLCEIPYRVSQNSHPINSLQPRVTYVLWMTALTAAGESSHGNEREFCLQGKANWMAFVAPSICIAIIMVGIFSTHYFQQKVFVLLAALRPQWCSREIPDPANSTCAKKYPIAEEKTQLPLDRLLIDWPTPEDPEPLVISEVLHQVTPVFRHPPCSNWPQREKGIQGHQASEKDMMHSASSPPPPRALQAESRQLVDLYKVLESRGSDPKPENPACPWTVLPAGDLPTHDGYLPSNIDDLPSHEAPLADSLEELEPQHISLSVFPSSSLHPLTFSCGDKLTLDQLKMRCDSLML

B1: anti-IL-12Rβ2 VHH clone 2CRH41 (VHH, not shown: small tags and cut ends)
VHH: QVQLQESGGGLVQPGGSLRLSCTASGFAFSSYWMYWVRQSPEKGFEWVSVVDTDGGITYYADSVKGRFTISRDNAKNTLYLQMNSLKPQDTALYYCARDRTTLEYTRTYYRTGQGTQVTVSS
notes: periplasmic extract; also called 20365
B2: anti-IL-12Rβ2 VHH clone 3CRHS163 (VHH, not shown: small tags and cut ends)
VHH: B1 VHH with S31T, V37I, D52N, D54G, G56D, Q89E, L103M, E104S, T112G
notes: periplasmic extract
B3: anti-IL-12Rβ2 VHH clone 3CAHS41 (VHH, not shown: small tags and cut ends)
VHH: QVQLQESGGGLVQAGDSLRLSCAASGRTFDTYIVGWFRQAPGKEREFVSALSWSDDTTIRDDSLRGRFTISRDNAKNTVYLLMNSLKPEDTAVYYCAAKAKPPAATWSSYRNREWYDYWGQGTQVTVSS
notes: periplasmic extract
B4: anti-IL-12Rβ2 VHH clone 3CAHS180 (VHH, not shown: small tags and cut ends)
VHH: B3 VHH with I70L
notes: periplasmic extract
B5: anti-IL-12Rβ2 VHH clone 3CRHS142 (VHH, not shown: small tags and cut ends)
VHH: QVQLQESGGGLVQAGGSLRLSCVSSQTLVGIEAMGWYRQAPGKQRELVALITLNGGTFYADSVKGRFTISRDVAEHMLYLEMNSLNPEDTAVYFCVAGVESDNEEPTYWGQGTQVTVSS
notes: periplasmic extract
B6: anti-IL-12Rβ2 VHH clone 2CRHS4 (VHH, not shown: small tags and cut ends)
VHH: B5 VHH with A14P, E75G
notes: periplasmic extract
B7: anti-IL-12Rβ2 VHH clone 3CRHS67 (VHH, not shown: small tags and cut ends)
VHH: B5 VHH with R19T
notes: periplasmic extract
B8: anti-IL-12Rβ2 VHH clone 3CRHS166 (VHH, not shown: small tags and cut ends)
VHH: B5 VHH with A14S
notes: periplasmic extract
B9: anti-IL-12Rβ2 VHH clone 3CRHS156 (VHH, not shown: small tags and cut ends)
VHH: B5 VHH with A14S, T68A
notes: periplasmic extract
B10: anti-IL-12Rβ2 VHH clone 3CAH32 (VHH, not shown: small tags and cut ends)
VHH: QVQLQESGGGLVQPGGSLRLSCAASGSILRINLMGWYRQVPGKQRELVAEMSTGGSTTYVDSVKGRFTISRDNAKNTVYLQMNSLKPEDTAVYYCNAKAWQLGRLENDDWGQGTQVTVSS
notes: periplasmic extract; also called 20357
B11: anti-IL-12Rβ2 VHH clone 3CAHS102 (VHH, not shown: small tags and cut ends)
VHH: B10 VHH with K64E
notes: periplasmic extract
B12: anti-IL-12Rβ2 VHH clone 3CRHS31 (VHH, not shown: small tags and cut ends)
VHH: QVQLQESGGGLVQAGGSLRLSCAASGFTFSTYAMSWVRQAPGKGLEWVSSVNSGGLSTDYADSVEGRFTISRDDAKNMLFLQMNSLKPEDTARYYCAKYEDCSDYVCDRAGYWGQGTQVTVSS
notes: periplasmic extract
B13: anti-IL-12Rβ2 VHH clone 3CRHS51 (VHH, not shown: small tags and cut ends)
VHH: B12 VHH with A14P, S50A, S85R
notes: periplasmic extract
B14: anti-IL-12Rβ2 VHH clone 3CAHS39 (VHH, not shown: small tags and cut ends)
VHH: QVQLQESGGGLVQAGGSLRLSCAASGRTINAYIMGWFRQAPGKEREFVAAVSGSGGSTYYADSVKGRFTISRDNAKNTVNLQMDNLRSEDTDVYYCAATYESVYLQNPGQYDYWGQGTQVTVSS
notes: periplasmic extract
B15: anti-IL-12Rβ2 VHH clone 3CAHS52 (VHH, not shown: small tags and cut ends)
VHH: B14 VHH with L11S
notes: periplasmic extract
B16: anti-IL-12Rβ2 VHH clone 3CAHS43 (VHH, not shown: small tags and cut ends)
VHH: B14 VHH with L11S, Q106R
notes: periplasmic extract
B17: anti-IL-12Rβ2 VHH clone 3CAHS53 (VHH, not shown: small tags and cut ends)
VHH: B14 VHH with Q13E, A14P, N74S
notes: periplasmic extract
B18: anti-IL-12Rβ2 VHH clone 3CAHS150 (VHH, not shown: small tags and cut ends)
VHH: B14 VHH with L11S, I33V, V51I
notes: periplasmic extract
B19: anti-IL-12Rβ2 VHH clone 3CAHS124 (VHH, not shown: small tags and cut ends)
VHH: B14 VHH with A14P
notes: periplasmic extract
B20: anti-IL-12Rβ2 VHH clone 3CRH38 (VHH, not shown: small tags and cut ends)
VHH: QVQLQESGGGLVQAGGSLVLSCAASGSAALIFLMSWYRQAPGKQRELVAEVSRGGSTTYADSVEGRFTISRDNAKNIVDLQMNSLKPEDTAVYYCKADQNYGDSLRSSWGRGTQVTVSS
notes: periplasmic extract
B21: anti-IL-12Rβ2 VHH clone 3CRH67 (VHH, not shown: small tags and cut ends)
VHH: B20 VHH with G54Y, V92A, N100Y
notes: periplasmic extract
B22: anti-IL-12Rβ2 VHH clone 3CRHS184 (VHH, not shown: small tags and cut ends)
VHH: B20 VHH with G54Y, N100Y, V115L
notes: periplasmic extract
B23: anti-IL-12Rβ2 VHH clone 3CRHS2 (VHH, not shown: small tags and cut ends)
VHH: B20 VHH with A14L, V19T, G54Y, N100Y
notes: periplasmic extract
B24: anti-IL-12Rβ2 VHH clone 3CRHS99 (VHH, not shown: small tags and cut ends)
VHH: QVQLQESGGGLVQPGGSLRLSCKASGFTFSTYAMSWVRQAPGKGLEWVSAINSGGLSTDYADSVEGRFTISRDDAKNMLFLQMNSLKAEDTARYYCAKYEDCSDYMCHRDRAGYWGQGTQVTVSS
notes: periplasmic extract
B25: anti-IL-12Rβ2 VHH clone 3CRHS106 (VHH, not shown: small tags and cut ends)
VHH: B24 VHH with I51V, A88P
notes: periplasmic extract
B26: anti-IL-12Rβ2 VHH clone 3CAHS142 (VHH, not shown: small tags and cut ends)
VHH: QVQLQESGGGLVQAGESLTLSCIASGVIKDYAMGWFRQAPGKEREFVAAISWSGVSIYYADSVKGRFTISRDNAKNTVYLQMNSLEPEDTAVYYCAGTEGAYTVAGGSTFGYDMDYWGKGTQVTVSS
notes: periplasmic extract
B27: anti-IL-12Rβ2 VHH clone 3CAHS79 (VHH, not shown: small tags and cut ends)
VHH: QVQLQESGGGLVQPGGSLRLTCVASGFPFSTHAMSWVRQPPGKGREWISAINSGGDSTDYADSVMGRFTISRDNAKNTVYLQMNSLKSEDTAVYYCAKYEDCSDYDCSSRASWGQGTQVTVSS
notes: periplasmic extract
B28: anti-IL-12Rβ2 VHH clone 3CAHS171 (VHH, not shown: small tags and cut ends)
VHH: B27 VHH with V93A
notes: periplasmic extract
B29: anti-IL-12Rβ2 VHH clone 3CRH25 (VHH, not shown: small tags and cut ends)
VHH: QVQLQESGGGLVQAGDSLRLSCTASGHTFSRYTTIGWFRQAPGKDREFVAAIRWSGDITDYADAVKGRFTISRDNVKNTVYLQMNSLNPEDTAVYYCARGYSEYGVLSRNRGLYAYWGQGTQVTVSS
notes: periplasmic extract
B30: anti-IL-12Rβ2 VHH clone 3CRH64 (VHH, not shown: small tags and cut ends)
VHH: B29 VHH with D16G, M84T
notes: periplasmic extract
B31: anti-IL-12Rβ2 VHH clone 3CRHS77 (VHH, not shown: small tags and cut ends)
VHH: B29 VHH with D16G, R31S, D45E, R53G, D74H, K77E
notes: periplasmic extract
B32: anti-IL-12Rβ2 VHH clone 3CRH59 (VHH, not shown: small tags and cut ends)
VHH: QVQLQESGGGLVQPGGSLRLSCTASGFAFSSYWMYWVRQTPGKGFEWVSVVNPGGEITYYGDSMEDRFTISRDNAKNTLYLQMNSLKPEDTGLYYCARDRTTIDYTRTYYRGGQGTQVTVSS
notes: periplasmic extract
B33: anti-IL-12Rβ2 VHH clone 3CRH28 (VHH, not shown: small tags and cut ends)
VHH: QVQLQESGGGLVQPGGSLTLSCAASGFTFSSNAMSWVRQAPGKGLEWVSSISSGGGTTYYTDSVKGRFTTARDNAKNTLYLRMNSLKPEDTAVYYCSKSSTGSGSRGQGTQVTVSS
notes: periplasmic extract
B34: anti-IL-12Rβ2 VHH clone 3CAHS170 (VHH, not shown: small tags and cut ends)
VHH: QVQLQESGGGLVQAGGSLRLSCVASGRTFSSYAMGWFRQGPGKEREFVAAISWSGVSIYYADSVKGRFTISRDNAKNTVYLQMNSLEPEDTAVYYCAGTEGAYTVAGGSTFGYDMDYWGKGTQVTVSS
notes: periplasmic extract
B35: anti-IL-12Rβ2 VHH clone 3CAH48 (VHH, not shown: small tags and cut ends)
VHH: B34 VHH with V23A, I58T, E87R, G98A
notes: periplasmic extract; also called 20360
B36: anti-IL-12Rβ2 VHH clone 2CAH27 (VHH, not shown: small tags and cut ends)
VHH: B34 VHH with L11S, A14S
notes: periplasmic extract

Target: T1, human IL-12Rβ2
Test: flow cytometry, P.E. on transfected HEK293T cells

Row | % cells bound [%] | dMFI | Binder
1 | 31.6 | 583 | B1
2 | 43.7 | 1150 | B2
3 | 43.3 | 1070 | B3
4 | 42.6 | 1010 | B4
5 | 1.02 | 210 | B5
6 | 3.55 | 254 | B6
7 | 7.11 | 443 | B7
8 | 2.11 | 266 | B8
9 | 1.51 | 222 | B9
10 | 40 | 742 | B10
11 | 44.7 | 1090 | B11
12 | 42.8 | 977 | B12
13 | 46 | 1240 | B13
14 | 39 | 918 | B14
15 | 44.3 | 1110 | B15
16 | 47.6 | 1350 | B16
17 | 49.3 | 1460 | B17
18 | 47.4 | 1270 | B18

Row | % cells bound [%] | dMFI | Binder
19 | 46.3 | 1200 | B19
20 | 31.8 | 537 | B20
21 | 35.1 | 645 | B21
22 | 33.3 | 625 | B22
23 | 44.5 | 1150 | B23
24 | 42.1 | 980 | B24
25 | 43.3 | 1110 | B25
26 | 40.9 | 912 | B26
27 | 46.1 | 1230 | B27
28 | 47.5 | 1280 | B28
29 | 34.8 | 620 | B29
30 | 31 | 645 | B30
31 | 37.7 | 867 | B31
32 | 46.1 | 1170 | B32
33 | 44.6 | 1110 | B33
34 | 38.3 | 809 | B34
35 | 39.4 | 801 | B35
36 | 36.7 | 668 | B36
